B1: Tyrosine-protein phosphatase non-receptor type 1 (Homo sapiens), P18031 (parent)
chain: MEMEKEFEQIDKSGSWAAIYQDIRHEASDFPCRVAKLPKNKNRNRYRDVSPFDHSRIKLHQEDNDYINASLIKMEEAQRSYILTQGPLPNTCGHFWEMVWEQKSRGVVMLNRVMEKGSLKCAQYWPQKEEKEMIFEDTNLKLTLISEDIKSYYTVRQLELENLTTQETREILHFHYTTWPDFGVPESPASFLNFLFKVRESGSLSPEHGPVVVHCSAGIGRSGTFCLADTCLLLMDKRKDPSSVDIKKVLLEMRKFRMGLIQTADQLRFSYLAVIEGAKFIMGDSSVQDQWKELSHEDLEPPPEHIPPPPRPPKRILEPHNGKCREFFPNHQWVKEETQEDKDCPIKEEKGSPLNAAPYGIESMSQDTEVRSRVVGGSLRGAQAASPAKGEPSLPEKDEDHALSYWKPFLVNMCVATVLTAGAYLCYRFLFNSNT
B2: Tyrosine-protein phosphatase non-receptor type 1 (Homo sapiens), P18031 (parent)
chain: B1 chain
partner: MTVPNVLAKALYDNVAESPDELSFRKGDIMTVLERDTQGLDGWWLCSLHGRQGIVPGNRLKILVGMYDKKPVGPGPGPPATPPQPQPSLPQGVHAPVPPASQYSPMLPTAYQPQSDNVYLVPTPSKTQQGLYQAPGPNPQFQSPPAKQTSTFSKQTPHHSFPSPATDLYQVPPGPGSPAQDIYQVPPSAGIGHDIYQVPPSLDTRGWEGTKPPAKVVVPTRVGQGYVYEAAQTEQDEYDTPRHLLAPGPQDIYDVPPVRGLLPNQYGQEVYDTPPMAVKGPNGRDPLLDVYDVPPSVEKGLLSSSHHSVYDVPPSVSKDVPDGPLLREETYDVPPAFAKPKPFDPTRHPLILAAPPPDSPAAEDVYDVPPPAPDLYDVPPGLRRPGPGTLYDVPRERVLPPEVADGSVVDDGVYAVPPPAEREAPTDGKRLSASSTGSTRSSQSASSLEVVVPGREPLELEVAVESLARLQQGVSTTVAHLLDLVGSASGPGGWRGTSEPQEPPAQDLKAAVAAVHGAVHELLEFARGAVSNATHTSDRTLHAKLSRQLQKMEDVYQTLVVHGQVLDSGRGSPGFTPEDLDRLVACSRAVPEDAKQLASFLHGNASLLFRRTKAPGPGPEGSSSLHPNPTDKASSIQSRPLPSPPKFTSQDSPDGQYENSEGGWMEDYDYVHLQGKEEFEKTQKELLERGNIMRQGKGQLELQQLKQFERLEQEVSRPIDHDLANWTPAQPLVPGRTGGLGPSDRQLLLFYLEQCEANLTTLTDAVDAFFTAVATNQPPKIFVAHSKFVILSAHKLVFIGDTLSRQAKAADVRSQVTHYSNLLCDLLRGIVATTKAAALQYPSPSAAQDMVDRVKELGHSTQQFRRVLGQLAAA
B3: Tyrosine-protein phosphatase non-receptor type 1 (Homo sapiens), P18031 (parent)
chain: B1 chain
partner: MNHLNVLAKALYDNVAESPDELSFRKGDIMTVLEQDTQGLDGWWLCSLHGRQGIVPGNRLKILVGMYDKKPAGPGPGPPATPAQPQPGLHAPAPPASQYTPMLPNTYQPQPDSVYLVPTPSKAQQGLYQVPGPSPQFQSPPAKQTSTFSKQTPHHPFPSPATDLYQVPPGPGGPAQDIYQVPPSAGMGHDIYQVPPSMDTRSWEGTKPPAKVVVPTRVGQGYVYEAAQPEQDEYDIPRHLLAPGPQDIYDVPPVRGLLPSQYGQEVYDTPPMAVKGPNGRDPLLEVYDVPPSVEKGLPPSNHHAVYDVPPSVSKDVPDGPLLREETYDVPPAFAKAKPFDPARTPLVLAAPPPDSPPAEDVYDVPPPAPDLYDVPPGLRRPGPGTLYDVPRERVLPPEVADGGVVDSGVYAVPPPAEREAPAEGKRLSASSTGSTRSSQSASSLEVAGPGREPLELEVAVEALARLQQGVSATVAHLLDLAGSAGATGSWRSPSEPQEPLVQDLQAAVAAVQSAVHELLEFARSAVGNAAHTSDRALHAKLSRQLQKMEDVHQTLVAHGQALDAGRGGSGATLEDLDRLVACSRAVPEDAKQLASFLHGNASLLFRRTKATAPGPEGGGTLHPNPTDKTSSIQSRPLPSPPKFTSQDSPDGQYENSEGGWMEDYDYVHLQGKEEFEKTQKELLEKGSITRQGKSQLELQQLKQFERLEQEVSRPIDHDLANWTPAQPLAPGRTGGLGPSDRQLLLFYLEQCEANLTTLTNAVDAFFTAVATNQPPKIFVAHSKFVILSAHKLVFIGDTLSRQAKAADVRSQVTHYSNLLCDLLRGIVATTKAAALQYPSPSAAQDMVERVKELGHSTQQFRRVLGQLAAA

The values that follow come from IntAct's records for PubMed 9418872.

Variants of B1 are the subject of the first experiment. Conditions: with paxi_mouse Pxn.
For P309A, the “effect of a mutation on the interaction” value is on record as “disrupting interaction”. Consider P310A, for which the “effect of a mutation on the interaction” value is “disrupting interaction”.

The next experiment covers variants of B1. Conditions: with fak1_mouse Ptk2, P34152.
Chain of fak1_mouse Ptk2, P34152 (P34152 whole entry): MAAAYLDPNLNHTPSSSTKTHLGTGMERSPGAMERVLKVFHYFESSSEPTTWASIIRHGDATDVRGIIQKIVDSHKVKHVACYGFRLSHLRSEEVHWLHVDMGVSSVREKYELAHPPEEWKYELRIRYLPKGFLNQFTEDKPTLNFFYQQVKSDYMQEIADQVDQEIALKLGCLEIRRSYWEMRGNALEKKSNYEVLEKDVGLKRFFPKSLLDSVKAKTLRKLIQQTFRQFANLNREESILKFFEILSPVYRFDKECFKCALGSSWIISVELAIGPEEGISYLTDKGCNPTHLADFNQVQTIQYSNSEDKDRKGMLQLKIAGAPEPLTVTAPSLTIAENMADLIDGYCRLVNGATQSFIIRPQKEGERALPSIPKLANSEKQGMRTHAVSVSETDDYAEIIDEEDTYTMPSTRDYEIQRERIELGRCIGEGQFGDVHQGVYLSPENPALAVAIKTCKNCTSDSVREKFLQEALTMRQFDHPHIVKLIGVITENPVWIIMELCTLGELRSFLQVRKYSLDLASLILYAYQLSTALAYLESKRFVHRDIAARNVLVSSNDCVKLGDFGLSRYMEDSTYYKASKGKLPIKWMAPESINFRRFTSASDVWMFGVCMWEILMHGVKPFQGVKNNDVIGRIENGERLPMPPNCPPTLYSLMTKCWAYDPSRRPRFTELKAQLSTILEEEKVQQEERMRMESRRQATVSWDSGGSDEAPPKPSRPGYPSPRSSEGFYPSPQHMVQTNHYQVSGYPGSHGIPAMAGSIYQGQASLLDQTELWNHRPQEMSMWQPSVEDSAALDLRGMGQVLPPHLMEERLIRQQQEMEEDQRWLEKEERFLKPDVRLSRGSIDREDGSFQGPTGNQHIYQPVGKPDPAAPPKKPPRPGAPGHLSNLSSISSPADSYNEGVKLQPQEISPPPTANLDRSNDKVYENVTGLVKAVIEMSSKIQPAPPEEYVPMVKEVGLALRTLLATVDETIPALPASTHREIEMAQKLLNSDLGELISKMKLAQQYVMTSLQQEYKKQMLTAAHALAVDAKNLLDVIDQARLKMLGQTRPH
On to P309A, for which the “effect of a mutation on the interaction” value is “disrupting interaction”. Take P310A: the “effect of a mutation on the interaction” value is “disrupting interaction”.

Variants of B1 are the subject of the next experiment. The note with it: with paxi_mouse Pxn. This is another data set of the same source.
For the variant C215S, the “effect of a mutation on the interaction” value is given as “disrupting interaction”.

The next experiment covers variants of B1. The note with it: with fak1_mouse Ptk2, P34152. This is another data set of the same source.
As to C215S, the “effect of a mutation on the interaction” value is given as “disrupting interaction”.

Variants of B2 are the subject of another experiment. The note with it: with bcar1_mouse Bcar1, Q61140.
Consider P310A, for which the “effect of a mutation on the interaction” value is “disrupting interaction”.

For the variant P309A, the “effect of a mutation on the interaction” value is given as “disrupting interaction”.

In another experiment the parent is B2. Conditions: with bcar1_mouse Bcar1, Q61140. The source holds these as a separate data set.
As to C215S, the “effect of a mutation on the interaction” value is “disrupting interaction”.

In a further experiment the parent is B3. The note with it: with bcar1_human BCAR1, P56945.
With P310A, the “effect of a mutation on the interaction” value was “disrupting interaction”. For the variant P309A, the “effect of a mutation on the interaction” value is reported as “disrupting interaction”.
